Assay results published in the supplement of paper PMC10567573.
± gives the standard deviation.

Assay: protein stability index of a GFP-peptide fusion (GPS, HEK-293T) (PSI 1-6); higher = more stable
[1] = treatment: DMSO, c terminus: a fixed tail appended
[2] = treatment: MLN4924 1 uM, 8 h, c terminus: a fixed tail appended
[3] = treatment: DMSO, c terminus: native
[4] = treatment: MLN4924 1 uM, 8 h, c terminus: native
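Also: 24-mer peptide tiles fused after GFP, lentivirally expressed, FACS-sorted into six equal bins by GFP/DsRed ratio, decoded by Illumina sequencing, PSI is the read-weighted mean bin number.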

| Sequence | protein stability index [1] | protein stability index [2] | protein stability index [3] | protein stability index [4] |
| --- | --- | --- | --- | --- |
| STMSLNIITVTLNMEKYNFLGISI [DVL3] | 3.3 ± 0.42 | 2.89 ± 0.33 |  |  |
| STTNSTAAKPAASITSKPATLTTT [ZNF207] | 4.39 ± 0.25 | 4.41 ± 0.081 |  |  |
| STVGKLCRLINEDVNEQVMQVLGP [CEP70] | 3.08 ± 0.19 | 3.2 ± 0.25 |  |  |
| SVFLLTLSIAFICCAQVKVSHLL [PHTF1] |  |  | 3.3 ± 0.35 | 3.23 ± 0.53 |
| SVLKRPERSQEESPPGSTKRRKSM [CDC25A] | 5.29 ± 0.29 | 5.5 ± 0.2 |  |  |
| SVMVMREILDYIFSGQIRLNEDTI [GAN] | 2.53 ± 0.51 | 2.32 ± 0.64 |  |  |
| SVSCCHGNTLLAVRSVTDEPVPP [NEK8] |  |  | 3.38 ± 0.17 | 3.48 ± 0.077 |
| SVSREARQTVPPLTVRLHTQSVSE [PWWP2B] | 4.29 ± 0.23 | 4.42 ± 0.28 |  |  |
| SVSWWGLSPALDLQAESPPVDPDS [DNAAF3] | 4.85 ± 0.12 | 4.944 ± 0.047 |  |  |
| SVVLRRARGGAVSARYVLPDEAAR [DUSP5] | 3.56 ± 0.33 | 3.55 ± 0.26 |  |  |
| TACSLPLCACLLGQKMLRHCGRT [PXN] |  |  | 3.03 ± 0.76 | 2.28 ± 0.4 |
| TALGDKKSLEGDLEDLKDQIAQLE [LMNB1] | 5.21 ± 0.24 | 5.27 ± 0.24 |  |  |
| TAPRQEKHERTHEIIPINVNNNYE [SPRY1] | 4.68 ± 0.15 | 4.61 ± 0.38 |  |  |
| TATDGGSPPLSTEAHFMLQVADIN [PCDHGA10] | 4.18 ± 0.089 | 4.19 ± 0.16 |  |  |
| TCAPSVSYFKCVQKEVLPSMRKIV [CCND1] | 2.33 ± 0.13 | 2.35 ± 0.33 |  |  |
| TCLMISCYKGHKEIAQYLLEKGAD [FEM1C] | 2.29 ± 0.39 | 2.05 ± 0.27 |  |  |
| TDAGKAFCMFYAVLGIPLTLVMFQ [KCNK9] | 3.35 ± 0.4 | 3.06 ± 0.31 |  |  |
| TEKDLLEDGFGEHPFYHCLVAEVP [SAT1] | 3.35 ± 0.32 | 3.41 ± 0.37 |  |  |
| TEQGFGEDLEDLGAVAPPVSGDLT [NFE2L1] | 5.388 ± 0.027 | 5.26 ± 0.55 |  |  |
| TFAGDTCQVALNFANEEEAKKFRK [WASL] | 4.75 ± 0.12 | 4.73 ± 0.32 |  |  |
| TGPPCDRQWTVSDWGPCSGSCGQG [ADAMTSL2] | 3.67 ± 0.45 | 3.51 ± 0.24 |  |  |
| TGPQLPESLEDVAMYISQEEWGHQ [ZNF263] | 4.67 ± 0.1 | 4.52 ± 0.29 |  |  |
| TGSTYNLSSGMAVAGMPTAYDLSS [CARM1] | 3.27 ± 0.21 | 3.42 ± 0.44 |  |  |

| Sequence | protein stability index [1] | protein stability index [2] | protein stability index [3] | protein stability index [4] |
| --- | --- | --- | --- | --- |
| TICYCPEKGTWTELEGDVAEPLAG [KLHL14] | 4.39 ± 0.18 | 4.59 ± 0.26 |  |  |
| TIGFGDYVALQTKGALQKKPLYVA [KCNK9] | 2.29 ± 0.19 | 2.63 ± 0.28 |  |  |
| TIKHPGGAGAEESELQAYIAQCQD [MCOLN1] | 5.27 ± 0.2 | 5.23 ± 0.31 |  |  |
| TILLDGQRVKLKLWDTSGQGRFCT [RAB40A] | 2.21 ± 0.13 | 2.21 ± 0.23 |  |  |
| TKKLRLTKPSKSAALHIDLCKATS [INTS4] | 2.91 ± 0.17 | 3.13 ± 0.22 |  |  |
| TKPKTTAIQGISEKEKAEIEAKEA [DLC1] | 5.56 ± 0.25 | 5.35 ± 0.35 |  |  |
| TLASVPPAATFGADDLVLTLSNPQ [ELF3] | 4.28 ± 0.21 | 4.25 ± 0.2 |  |  |
| TLGASSLREERGHPLHPRHRKAVH [C6orf223] | 4.54 ± 0.25 | 4.5 ± 0.098 |  |  |
| TLLLELEQDSGVQVEGLTVQYLGQ [ADAMTS4] | 2.87 ± 0.72 | 3.23 ± 0.38 |  |  |
| TLLVCGKKAYDYFQAKKIPIVSSL [PDZK1] | 2.6 ± 0.75 | 2.58 ± 0.13 |  |  |
| TLNVDRKEKCVSLPDCCHGSELRD [DLC1] | 4.15 ± 0.1 | 4.26 ± 0.15 |  |  |
| TLPVLEASSWKKQVSHDFLETRFK [FBXO34] | 3.16 ± 0.66 | 3.1 ± 0.41 |  |  |
| TPAKSLDKFIEDYLLPDTCFRMQI [OAS1] | 2.51 ± 0.51 | 2.65 ± 0.48 |  |  |
| TPEPDTCHELLGHVPLLAEPSFAQ [TPH1] | 3.96 ± 0.27 | 3.91 ± 0.2 |  |  |
| TPETRAKFTQDNLCRAQRERLASA [TEKT4] | 4.17 ± 0.23 | 4.35 ± 0.35 |  |  |
| TPGGRGDMKYGIYAVENEHMNRLQ [VTI1B] | 3.69 ± 0.33 | 3.55 ± 0.63 |  |  |
| TPLQSRTSIVQAAAGGVPGGGSNN [PDLIM7] | 4.71 ± 0.2 | 5.03 ± 0.24 |  |  |
| TQHNFQEVMESEEFMLLPANQLID [KLHL20] | 4.43 ± 0.18 | 4.66 ± 0.24 |  |  |
| TQIRTITEEIRDGKVISSREHVQS [KRT36] | 4.75 ± 0.088 | 4.86 ± 0.1 |  |  |
| TQQNRKLTDFYPVRRSSRKSKAEL [KMT5A] | 2.97 ± 0.89 | 3.76 ± 0.29 |  |  |
| TQSLPTASASKFPSSGPVTPQPTA [AUP1] | 4.85 ± 0.22 | 4.78 ± 0.16 |  |  |
| TRILKHSPESSRGQCGENLAWASY [GLIPR2] | 2.38 ± 0.44 | 2.38 ± 0.18 |  |  |
| TSCSLELIGDLIGHSSSVEMFLYF [WDR41] | 3.13 ± 0.88 | 2.4 ± 0.74 |  |  |

| Sequence | protein stability index [1] | protein stability index [2] | protein stability index [3] | protein stability index [4] |
| --- | --- | --- | --- | --- |
| TSETSHSPLYADPYTPPATSHRRV [PLEKHN1] | 4.39 ± 0.12 | 4.34 ± 0.08 |  |  |
| TSGGSNIIYVASNHFVWRLIPVPM [VPS39] | 2.44 ± 0.36 | 2.51 ± 0.74 |  |  |
| TSVLATLVVFAVLGFKANIMNEKC [SLC6A17] | 2.66 ± 0.12 | 3.31 ± 0.11 |  |  |
| TTEQHVPEVEVQVKRRRTASLSNQ [SNURF] | 5.25 ± 0.27 | 5.23 ± 0.17 |  |  |
| TTSDIPHMLNQVESKVKDILSKVQ [FAM98B] | 2.48 ± 0.38 | 2.32 ± 0.32 |  |  |
| TTVPDGPTQLRALNLTEGFAVLHW [TNXB] | 2.18 ± 0.098 | 2.05 ± 0.065 |  |  |
| TVETCRALGKLLPRETLCTELVLS [LRRC45] | 2.67 ± 0.25 | 2.55 ± 0.13 |  |  |
| TVLENEDDMLLFDEQEKGIVTKFY [FAN1] | 3.65 ± 0.12 | 3.72 ± 0.26 |  |  |
| TVMILPVTHTEISPEQQFDRSVQR [TMEM175] | 3.64 ± 0.28 | 3.76 ± 0.16 |  |  |
| TVSIMEPGETRRNSYPRADTGLFS [TRIM29] | 3.81 ± 0.2 | 3.64 ± 0.37 |  |  |
| TWDGRPLTMAATFDDCLYALCVVD [GFOD1] | 2.38 ± 0.46 | 2.35 ± 0.61 |  |  |
| TWKVLFCSMSATFTLNFFRSGIQF [CLCN6] | 3.25 ± 0.11 | 3.2 ± 0.73 |  |  |
| TWRLPDVSEAGGSGRLSASWEPLS [FCHO1] | 3.38 ± 0.13 | 3.24 ± 0.26 |  |  |
| TWWIMFLSTFSVPYFLFQHWATGY [SOAT1] | 3.18 ± 0.29 | 2.77 ± 0.51 |  |  |
| TYECRCIGEEKEMWNFGEKYARF [TIA1] |  |  | 2.58 ± 0.59 | 2.93 ± 0.65 |
| TYGRRAKGHNTPKDIAHFWELGGG [DYNC2LI1] | 2.84 ± 0.11 | 3.07 ± 0.18 |  |  |
| TYKRFEGLTQRGSIPTYMKAGKL [STK38L] |  |  | 2.26 ± 0.18 | 2.41 ± 0.19 |
| TYSLVPKKKTKVLKQRTVIEMFKS [EHMT1] | 2.41 ± 0.21 | 2.58 ± 0.34 |  |  |
| VASGYHYGVASCEACKAFFKRTIQ [ESRRA] | 2.29 ± 0.27 | 2.47 ± 0.48 |  |  |
| VCEQCLQILYESCPKYKFISCPTC [RNF208] | 4.06 ± 0.29 | 4.09 ± 0.5 |  |  |
| VCRARPRACSHLIRLMQRCWQGDP [RIPK4] | 2.21 ± 1.1 | 2.86 ± 0.35 |  |  |
| VCSILLGTSTLLVWVGVIRYLTFF [MCOLN1] | 3.3 ± 0.42 | 3.02 ± 0.079 |  |  |
| VDGRHLLRTLSRAKFWPRRRFNFF [DNAAF3] | 1.92 ± 0.23 | 2.17 ± 0.11 |  |  |

| Sequence | protein stability index [1] | protein stability index [2] | protein stability index [3] | protein stability index [4] |
| --- | --- | --- | --- | --- |
| VDHHGTAQLQALRQKEVDFCISLL [INTS3] | 2.23 ± 0.2 | 2.35 ± 0.45 |  |  |
| VDKYVNSFVLKNFPALLSTGEFLK [KLHL13] | 2.01 ± 0.45 | 2.1 ± 0.6 |  |  |
| VDQTGVSGGVASFICQATGDPRPK [PTPRD] | 4.62 ± 0.17 | 4.81 ± 0.2 |  |  |
| VDQYLALPDVSLGRYAYVRGGGDP [MCOLN1] | 3.19 ± 0.26 | 3.03 ± 0.4 |  |  |
| VDSFETQRNGLVFIYDMCGSNYAN [PTPN9] | 2.23 ± 0.24 | 2.05 ± 0.28 |  |  |
| VEESEASSSVSISHSASATGNVCI [LMNB1] | 4.84 ± 0.11 | 4.71 ± 0.12 |  |  |
| VELLHNTSYTRQACLVSCFQQLMV [SCNN1D] | 2.39 ± 0.78 | 2.5 ± 0.94 |  |  |
| VENELMISYLMFLQILVYFSFMSW [FAM98B] | 2.94 ± 0.45 | 3.14 ± 0.05 |  |  |
| VFFAYAQLGYLLFGTQVENFSTFI [PKD2L1] | 3.33 ± 0.054 | 2.71 ± 0.72 |  |  |
| VGEVPYWVLEPVLEGWRPDQLYRR [ELOA2] | 1.97 ± 0.33 | 2.32 ± 0.33 |  |  |
| VGGEAVEVEEVENVQTEFPGEDEN [TRIM55] | 5.74 ± 0.2 | 5.61 ± 0.34 |  |  |
| VGRTVLDMLIREVVEKRLCMYEHG [RSPH3] | 2.89 ± 0.52 | 3.39 ± 0.14 |  |  |
| VGSDPLIKSDEECRDLVDEAKNYL [KLHL20] | 5.2 ± 0.11 | 5.09 ± 0.28 |  |  |
| VGVAGLISPWNLPLYLLTWKIAPA [ALDH8A1] | 2.92 ± 0.97 | 2.88 ± 0.95 |  |  |
| VIRKNIVKKCLELFSELAEDKENY [HSP90AB1] | 2.33 ± 0.046 |  |  |  |
| VISLEKLNVGNERYVFEAVIRWIA [GAN] | 2.38 ± 0.38 | 2.09 ± 0.29 |  |  |
| VKMDQKSKHLKEMYQELMEMCHKP [TRIM43] | 3.03 ± 0.15 | 3.13 ± 0.28 |  |  |
| VKSVSPQGNSVDRMAAPRAEALFD [NCF4] | 4.35 ± 0.14 | 4.71 ± 0.14 |  |  |
| VLENLEDSCVLTGPDDSLWDKHAC [TRIB3] | 3.69 ± 0.16 | 3.87 ± 0.26 |  |  |
| VLGVADGVGGWRDYGVDPSQFSGT [PPTC7] | 3.51 ± 0.24 | 4 ± 0.088 |  |  |
